Data on one molecule can be found in article PMC4119481.

The target in this assay is T1, IFN regulatory factor 3 (mouse (endogenous in BMDMs)), P70671.
T1 chain: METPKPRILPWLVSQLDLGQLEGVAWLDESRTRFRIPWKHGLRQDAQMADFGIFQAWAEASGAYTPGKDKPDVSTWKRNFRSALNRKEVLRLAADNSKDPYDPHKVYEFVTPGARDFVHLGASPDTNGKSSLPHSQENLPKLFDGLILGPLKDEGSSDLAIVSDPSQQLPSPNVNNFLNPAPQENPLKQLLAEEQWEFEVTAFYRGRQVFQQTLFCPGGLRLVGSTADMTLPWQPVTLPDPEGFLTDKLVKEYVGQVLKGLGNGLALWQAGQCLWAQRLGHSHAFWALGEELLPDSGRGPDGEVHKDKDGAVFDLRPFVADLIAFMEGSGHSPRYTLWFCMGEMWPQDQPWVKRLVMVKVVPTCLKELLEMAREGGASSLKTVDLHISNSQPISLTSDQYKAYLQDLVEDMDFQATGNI
Kind of assay: native gel or EMSA. To be noted: remark: other sources report otherwise.

B1: IFN regulatory factor 3, P70671 1-419 (natural protein)
chain: T1 chain
In turn, B1 registered a stoichiometry N of 2.
